Measured values from US20230346960A1.
No end group written: not given here.

Target: collagen IV/laminin (2% reduced growth factor Matrigel, Corning #354230)
Assay: plate binding assay, biotinylated molecule on Matrigel-coated plate, streptavidin-HRP, absorbance 450 nm

B1: DS-SILY4 (biotinylated; dermatan sulfate backbone with 4 SILY peptide substitutions per DS) (peptide)
peptide: RRANAALKAGELYKSILYGSG
modifications: not fully specified (C-terminus); also: about 4 peptides per dermatan sulfate, one equivalent N-terminally biotinylated SILY-hydrazide also conjugated
**Q.** How did the binding capacity turn out when B1 was run?
**A.** Its binding capacity is 1.1 AU.
